Laboratory results taken from US20260062456A1 (ALPINE IMMUNE SCIENCES, published 2026).

T1: human TIGIT stably expressed on Jurkat/IL-2 reporter cells (Jurkat/TIGIT cells) (human, UniProt Q495A1 22-244)
T1 sequence (looked up): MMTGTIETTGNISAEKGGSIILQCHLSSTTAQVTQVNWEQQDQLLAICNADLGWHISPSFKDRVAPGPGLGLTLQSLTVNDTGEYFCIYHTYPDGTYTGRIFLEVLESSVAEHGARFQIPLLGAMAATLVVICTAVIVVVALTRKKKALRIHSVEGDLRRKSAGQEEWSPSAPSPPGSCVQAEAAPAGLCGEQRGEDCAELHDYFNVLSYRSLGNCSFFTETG

T2: human TIGIT stably expressed on Jurkat/IL-2 reporter cells (Jurkat/TIGIT cells) (human, UniProt Q495A1 22-244)
T2 sequence: T1 sequence (looked up)

B1: Wild-type CD155-ECD-Fc (Fc fusion, not shown: a dimerising Fc or GST)
chain: WPPPGTGDVVVQAPTQVPGFLGDSVTLPCYLQVPNMEVTHVSQLTWARHGESGSMAVFHQTQGPSYSESKRLEFVAARLGAELRNASLRMFGLRVEDEGNYTCLFVTFPQGSRSVDIWLRVLAKPQNTAEVQKVQLTGEPVPMARCVSTGGRPPAQITWHSDLGGMPNTSQVPGFLSGTVTVTSLWILVPSSQVDGKNVTCKVEHESFEKPQLLTVNLTVYYPPEVSISGYDNNWYLGQNEATLTCDARSNPEPTGYNWSTTMGPLPPFAVAQGAQLLIRPVDKPINTTLICNVTNALGARQAELTVQVKEGPPSEHSGISRN
B2: PD-L1/CD155 Stack 2 (Fc fusion)
chain: FTVTVPKDLYVVEYGSNMTIECKFPVEKQLDLAALIVYWEMEGKDIIQFVHGEEDQKAQHSSYRQRARLLKDQLSLGNAALQITDVKLQDAGVYRCMISYGGGADYKRITVKVNAGGGGSGGGGSEPKSSDKTHTCPPCPAPEAEGAPSVFLFPPKPKDTLMISRTPEVTCVVVDVSHEDPEVKFNWYVDGVEVHNAKTKPREEQYNSTYRVVSVLTVLHQDWLNGKEYKCKVSNKALPAPIEKTISKAKGQPREPQVYTLPPSRDELTKNQVSLTCLVKGFYPSDIAVEWESNGQPENNYKTTPPVLDSDGSFFLYSKLTVDKSRWQQGNVFSCSVMHEALHNHYTQKSLSLSPGKGGGGSGGGGSGGGGSWPPPGTGDVVVQAPTQVSGFLGDSVTLPCYLQVPNMEVTHVSQLTWARHGESGSMAVFHQTQGPWYAESKRLEFVAARLGAELRNASLRMFGLRVEDEGNYTCQFVTFPQRSRSVDIWLRVL
B3: PD-L1/CD155 Stack 1 (Fc fusion)
chain: WPPPGTGDVVVQAPTQVSGFLGDSVTLPCYLQVPNMEVTHVSQLTWARHGESGSMAVFHQTQGPWYAESKRLEFVAARLGAELRNASLRMFGLRVEDEGNYTCQFVTFPQRSRSVDIWLRVLGGGGSGGGGSEPKSSDKTHTCPPCPAPEAEGAPSVFLFPPKPKDTLMISRTPEVTCVVVDVSHEDPEVKFNWYVDGVEVHNAKTKPREEQYNSTYRVVSVLTVLHQDWLNGKEYKCKVSNKALPAPIEKTISKAKGQPREPQVYTLPPSRDELTKNQVSLTCLVKGFYPSDIAVEWESNGQPENNYKTTPPVLDSDGSFFLYSKLTVDKSRWQQGNVFSCSVMHEALHNHYTQKSLSLSPGKGGGGSGGGGSGGGGSFTVTVPKDLYVVEYGSNMTIECKFPVEKQLDLAALIVYWEMEGKDIIQFVHGEEDQKAQHSSYRQRARLLKDQLSLGNAALQITDVKLQDAGVYRCMISYGGGADYKRITVKVNA
B4: PD-L1/CD155 Stack 4: (PD-L1 IgV) (G4S)3 (CD155 IgV) (G4S)2 Fc (Fc fusion)
chain: FTVTVPKDLYVVEYGSNMTIECKFPVEKQLDLAALIVYWEMEGKDIIQFVHGEEDQKAQHSSYRQRARLLKDQLSLGNAALQITDVKLQDAGVYRCMISYGGGADYKRITVKVNAGGGGSGGGGSGGGGSWPPPGTGDVVVQAPTQVSGFLGDSVTLPCYLQVPNMEVTHVSQLTWARHGESGSMAVFHQTQGPWYAESKRLEFVAARLGAELRNASLRMFGLRVEDEGNYTCQFVTFPQRSRSVDIWLRVLGGGGSGGGGSEPKSSDKTHTCPPCPAPEAEGAPSVFLFPPKPKDTLMISRTPEVTCVVVDVSHEDPEVKFNWYVDGVEVHNAKTKPREEQYNSTYRVVSVLTVLHQDWLNGKEYKCKVSNKALPAPIEKTISKAKGQPREPQVYTLPPSRDELTKNQVSLTCLVKGFYPSDIAVEWESNGQPENNYKTTPPVLDSDGSFFLYSKLTVDKSRWQQGNVFSCSVMHEALHNHYTQKSLSLSPGK
B5: PD-L1/CD155 Stack 2: (PD-L1 IgV) (G4S)2 Fc(G4S)3 (CD155 IgV) (Fc fusion)
chain: B2 chain
B6: PD-L1/CD155 Stack 1: (CD155 IgV) (G4S)2 Fc (G4S)3 (PD-L1 IgV) (Fc fusion)
chain: B3 chain
B7: PD-L1/CD155 Stack 3: (CD155 IgV) (G4S)3 (PD-L1 IgV) (G4S)2 Fc (Fc fusion)
chain: WPPPGTGDVVVQAPTQVSGFLGDSVTLPCYLQVPNMEVTHVSQLTWARHGESGSMAVFHQTQGPWYAESKRLEFVAARLGAELRNASLRMFGLRVEDEGNYTCQFVTFPQRSRSVDIWLRVLGGGGSGGGGSGGGGSFTVTVPKDLYVVEYGSNMTIECKFPVEKQLDLAALIVYWEMEGKDIIQFVHGEEDQKAQHSSYRQRARLLKDQLSLGNAALQITDVKLQDAGVYRCMISYGGGADYKRITVKVNAGGGGSGGGGSEPKSSDKTHTCPPCPAPEAEGAPSVFLFPPKPKDTLMISRTPEVTCVVVDVSHEDPEVKFNWYVDGVEVHNAKTKPREEQYNSTYRVVSVLTVLHQDWLNGKEYKCKVSNKALPAPIEKTISKAKGQPREPQVYTLPPSRDELTKNQVSLTCLVKGFYPSDIAVEWESNGQPENNYKTTPPVLDSDGSFFLYSKLTVDKSRWQQGNVFSCSVMHEALHNHYTQKSLSLSPGK

Target: human PD-1 stably expressed on Jurkat/IL-2 reporter cells (Jurkat/PD-1 cells) (human, UniProt Q15116 21-288)
Sequence (Q15116 21-288): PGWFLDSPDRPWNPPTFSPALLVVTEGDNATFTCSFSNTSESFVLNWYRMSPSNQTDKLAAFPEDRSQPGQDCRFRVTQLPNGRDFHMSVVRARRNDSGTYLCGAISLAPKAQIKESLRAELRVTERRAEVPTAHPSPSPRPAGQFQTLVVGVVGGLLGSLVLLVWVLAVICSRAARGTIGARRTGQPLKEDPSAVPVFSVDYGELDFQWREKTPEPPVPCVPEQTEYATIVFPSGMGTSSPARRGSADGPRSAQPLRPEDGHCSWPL
Test: flow cytometry, Jurkat/PD-1 cells, 20 nM

| MFI at 20 nM | Binder |
| --- | --- |
| 511 MFI | B1 |
| 69800 MFI | B2 |
| 61800 MFI | B3 |

Target: T1, human TIGIT stably expressed on …
Test: cell-based or functional assay

| Fold Increase Compared to non-stack variant CD155 IgV-Fc control | Fold Increase Compared to non-stack variant PD-L1 IgV-Fc control | Fold Increase Compared to variant PD-L1 IgV-Fc and variant CD155 IgV-Fc | RLU | Binder |
| --- | --- | --- | --- | --- |
| 5.6 fold | 2 fold | 2.7 fold | 1920 RLU | B4 |
| 2.8 fold | 1 fold | 1.4 fold | 962 RLU | B5 |
| 1.7 fold | 0.6 fold | 0.8 fold | 573 RLU | B6 |
| 1.3 fold | 0.5 fold | 0.6 fold | 434 RLU | B7 |

Target: human PD-1 stably expressed on Jurkat/IL-2 reporter cells (Jurkat/PD-1 cells) (human, UniProt Q15116 25-288)
Sequence (Q15116 25-288): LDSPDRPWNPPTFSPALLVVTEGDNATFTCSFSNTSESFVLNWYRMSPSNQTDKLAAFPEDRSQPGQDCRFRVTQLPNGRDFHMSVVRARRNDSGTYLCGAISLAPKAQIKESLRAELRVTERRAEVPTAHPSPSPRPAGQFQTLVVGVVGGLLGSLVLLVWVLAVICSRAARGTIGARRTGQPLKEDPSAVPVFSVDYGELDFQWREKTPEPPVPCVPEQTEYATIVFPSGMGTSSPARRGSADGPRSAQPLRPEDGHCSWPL
Test: cell-based or functional assay

| Fold Increase Compared to non-stack variant CD155 IgV-Fc control | Fold Increase Compared to non-stack variant PD-L1 IgV-Fc control | Fold Increase Compared to variant PD-L1 IgV-Fc and variant CD155 IgV-Fc | RLU | Binder |
| --- | --- | --- | --- | --- |
| 5.6 fold | 2 fold | 2.7 fold | 1920 RLU | B4 |
| 2.8 fold | 1 fold | 1.4 fold | 962 RLU | B5 |
| 1.7 fold | 0.6 fold | 0.8 fold | 573 RLU | B6 |
| 1.3 fold | 0.5 fold | 0.6 fold | 434 RLU | B7 |

Target: T2, human TIGIT stably expressed on …
Test: flow cytometry, Jurkat/TIGIT cells, 20 nM

| MFI at 20 nM | Binder |
| --- | --- |
| 36500 MFI | B2 |
| 80700 MFI | B3 |
